From publication PMC7921634 come the findings set out here.

One may read the pKd as −log10 of the Kd, conventionally taken in molar units. In general, stoichiometry N refers to the number of molecules, sites or subunits per partner or assembly.

pKd: −log10 of the molar value.

Assay [1] concerns the target ACE2-Fc (soluble human ACE2 fused to human IgG Fc) (human) (UniProt Q9BYF1). The experiment in a line: BLI; ForteBio Octet QKe; ACE2-Fc (10 µg/mL) immobilized on Protein A biosensors; 2-fold serial dilutions of S-Trimer (22.5–36 µg/mL in PBS); KD by steady state analysis, 1:1 binding model.
The target in assay [2] is S-Trimer (ectodomain of wild-type SARS-CoV-2 Spike protein fused to Trimer-Tag) (SARS-CoV-2 | human) (UniProt P0DTC2). Put plainly: SDS-PAGE under non-reducing and reducing conditions.
The target is the same in assay [3]. The experiment in a line: negative-stain electron microscopy; S-Trimer 25 μg/mL in PBS adjusted to pH 5.5; 1% uranyl formate pH 4.0; FEI Tecnai spirit, 120 KeV.

ACE2-Fc (soluble human ACE2 fused to human IgG Fc) (human), sequence (Q9BYF1 18-738): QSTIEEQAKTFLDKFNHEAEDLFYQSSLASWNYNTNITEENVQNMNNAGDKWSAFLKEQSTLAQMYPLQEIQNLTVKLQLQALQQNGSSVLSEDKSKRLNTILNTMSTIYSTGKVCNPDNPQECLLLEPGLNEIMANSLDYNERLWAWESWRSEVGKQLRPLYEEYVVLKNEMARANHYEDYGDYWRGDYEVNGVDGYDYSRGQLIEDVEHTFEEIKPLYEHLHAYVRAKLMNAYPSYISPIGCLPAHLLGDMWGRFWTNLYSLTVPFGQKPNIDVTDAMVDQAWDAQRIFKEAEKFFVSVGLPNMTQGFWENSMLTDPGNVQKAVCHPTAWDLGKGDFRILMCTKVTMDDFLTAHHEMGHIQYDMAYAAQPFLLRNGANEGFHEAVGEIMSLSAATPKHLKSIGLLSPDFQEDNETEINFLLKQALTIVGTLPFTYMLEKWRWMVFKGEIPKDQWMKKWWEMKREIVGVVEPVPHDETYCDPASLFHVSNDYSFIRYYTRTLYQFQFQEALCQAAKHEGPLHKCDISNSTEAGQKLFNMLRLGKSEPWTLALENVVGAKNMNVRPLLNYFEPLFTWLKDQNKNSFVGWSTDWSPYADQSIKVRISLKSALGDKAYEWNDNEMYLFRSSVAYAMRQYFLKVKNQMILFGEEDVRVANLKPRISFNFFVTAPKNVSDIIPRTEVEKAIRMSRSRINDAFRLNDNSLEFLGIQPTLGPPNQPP

As for “S-Trimer (ectodomain of wild-type SARS-CoV-2 Spike protein fused to Trimer-Tag) (from UniProt P0DTC2;P02452)”, the pKd in assay [1] was 8.88. In addition, the stoichiometry N in assay [2] and in assay [3] was 3 throughout.
